The values that follow come from article PMC7527721, “Beyond Toxin Transport: Novel Role of ABC Transporter for Enzymatic Machinery of Cereulide NRPS Assembly Line” (mBio, 2020).

In assay [1] the target is C-terminal condensation domain C* of CesA (BACTH fusion) (Bacillus cereus F4810/72) (UniProt Q20CI9). Kind of assay: two-hybrid; BACTH in E. coli BTH101, β-galactosidase activity (Miller assay, ONPG, 28°C) of cells from LB-IPTG plates, normalized to the negative control (T18 and T25 alone).
Assay [2] deals with T1, CesD, transmembrane protein of the ABC transporter CesCD (BACTH fusion) (Bacillus cereus F4810/72, UniProt Q20CI6 1-268).
T1 construct: CesD, transmembrane protein of the ABC transporter CesCD, B. cereus F4810/72, NCBI ABK00530.1; also called T25-CesD; source: bacterial two-hybrid (BACTH) fusion, E. coli BTH101; not shown: T18 or T25 fragment of B. pertussis adenylate cyclase (several combinations tested), N-terminal or C-terminal, kept
T1 sequence: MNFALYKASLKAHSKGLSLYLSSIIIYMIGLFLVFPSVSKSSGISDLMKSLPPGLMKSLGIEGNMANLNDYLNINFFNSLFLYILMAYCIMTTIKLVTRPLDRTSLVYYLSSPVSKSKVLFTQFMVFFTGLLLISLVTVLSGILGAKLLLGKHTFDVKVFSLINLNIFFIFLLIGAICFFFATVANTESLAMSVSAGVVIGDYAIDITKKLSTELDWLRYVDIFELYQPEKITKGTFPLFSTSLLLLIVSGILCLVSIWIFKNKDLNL
The assay is described as above. To be noted: partners not purified.

For “CesC K40M (BACTH fusion) (from UniProt Q20CI7 1-291) (natural protein)”, in assay [1], the decrease in β-galactosidase activity against wild-type CesC was 30%.

B1: CesC, ATPase of the ABC transporter CesCD (BACTH fusion) (natural protein)
chain: MIKIEGLTKEFGNGKGIFDVTFEVKQGEVFGFLGPNGAGKSTTIRHLMGFIKPSKGAATINGFDCWKEADQVKKRVGYLPGEIAFPEEMTAYDFIRLIAGMKGMSDLGRAEEFIEKFQLDMRVHIKKMSKGMKQKLAIVAAFLHDPDILILDEPSTGLDPLMQNILVDFILEEKKCGKTILISSHIFDEIKDTADTICIIKNGKIVESGDLKTLKSAQKRYLKAYFTQEVDVELLQRSNLQIEKVENLVATILIQQNINEIMRELMKYDLINVEIMEPEIKDIFIKHYENR
notes: also called T18-CesC; CesC-T18; source: bacterial two-hybrid (BACTH) fusion, E. coli BTH101; not shown: T18 or T25 fragment of B. pertussis adenylate cyclase (several combinations tested), N-terminal or C-terminal, kept
Turning to B1, the “β-galactosidase activity, fold of the negative control” value in assay [2] is around 20 fold.
